According to the supplement of paper PMC9170038:

Test system: MS2 coat protein
Experiment: apparent KD of MS2 coat protein; designed switch direction (-1 OFF switch, 1 ON switch): -1; higher = weaker reporter binding
Summary of the method: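 For each design, the apparent KD is the median over clusters of curves fitted to normalised cluster fluorescence. Clusters held RNA switches with common flanks, transcribed on Illumina chips by stalled E. coli RNA polymerase. These were titrated with SNAP-549-labelled MS2 coat protein, doubling from 0.7 or 1.5 nM to 3 µM, without input, with 200 uM small-molecule ligand, or with an oligonucleotide input.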

[1] = Eterna round: R95, input ligand: microRNA oligo, concentration not stated
[2] = Eterna round: R95, input ligand: FMN 200 uM
[3] = Eterna round: R95, input ligand: none
[4] = input ligand: microRNA oligo, concentration not stated

Sequence | apparent KD of MS2 coat protein (input ligand: FMN 200 uM) [nM] | apparent KD of MS2 coat protein (input ligand: none) [nM] | apparent KD of MS2 coat protein [1] [nM] | further results
CAGUGCGUAGGAUAUACGAGGGCCCUUUAUUGUUGAUAAUGACAUGAGGAUCACCCAUGUAGAAGGGCGUCAUG [Eternabot (L1) Solution 45] (Eterna round: R97, puzzle: Exclusion 2) | 87.3 | 24.8 |  | 
CAUACACAUGAGGAUCACCCAUGUGAGGAUAUUCGCGCGCGCGCCCGGGCGCGCGCGCGGAGAAGGCACGUGCG [My first try] (Eterna round: R97, puzzle: Exclusion 1) | 76.7 | 51.2 |  | 
CAUACAGUAGUUAGGAUAUUGCAACGUACACGGAACGAGAAGGGACAUGAGGAUCACCCAUGUAGAUUGUAAAG [EX-4 Malc #8] (puzzle: Brourd's mod of Exclusion 4) |  |  | 20 | 
CAUACUCAAGUCAGGAUAUAGAGUCGGAUACGGAUCUAGAAGGGACAUGAGGAUCACCCAUGUAGAGAGUAAAG [EX-4 Malc #25] (puzzle: Brourd's mod of Exclusion 4) |  |  | 38 | apparent KD of MS2 coat protein [2]: 88 nM; apparent KD of MS2 coat protein [3]: 21.1 nM
CAUAGUAAUUAGGAUAUCUGCCGGCUGAACCGAGGAGAAGGGAUUACAUGAGGAUCACCCAUGUGGUCCUAAGA [Relegebe] (puzzle: Exclusion 6) |  |  | 14.5 | 
CAUAGUUGCUCAGGAUAUCAUACAUGAGGAUCACCCAUGUAAUAAAUGAGAAUUUCGAAUGUAAAUGAGAAGGGAGAAAUCUAC [Ostracism 60 - Jieux - Exclusion NG 2] (Eterna round: R96, puzzle: Exclusion NG 2) | 22.5 | 14.4 |  | apparent KD of MS2 coat protein [4]: 11.6 nM
CAUAUAGUAGUGAGGAUAUGCGAAUAUAUAAUUAAGUAGAAGGCACAUGAGGAUCACCCAUGUAUAUUGUAAAG [EX-4 Malc] (puzzle: Brourd's mod of Exclusion 4) |  |  | 18.9 | 
CAUGAUCUUCGGAUCAUGUACAUGAGGAUCACCCAUGUUACGAGCAGAUCUUCAUACAAGCUUUUUGCUCGUCUUAU [Sensor v3 - Turn-off variant 1 - 34] (puzzle: Sensor v3, turn-off variant 1) |  |  | 64.9 | apparent KD of MS2 coat protein [2]: 34.5 nM; apparent KD of MS2 coat protein [3]: 40.4 nM
CAUGAUUGGGAAGGAUAUUGACCUAGUUAGUGCCGAGAAGGUCCCUUUCACAUGAGGAUCACCCAUGUGAGUCUGGUGUUCGAG [Ex NG1 #97] (Eterna round: R96, puzzle: Exclusion NG 1) | 43.1 | 30.5 |  | apparent KD of MS2 coat protein [4]: 23.7 nM
CAUGGAACGUAGGAUAUCUCACAGCCAGGCUGCAGAGAAGGACGUACAUGAGGAUCACCCAUGUAUGAUCCAAA [Tius] (puzzle: Exclusion 6) |  |  | 15.5 | apparent KD of MS2 coat protein [2]: 26.9 nM; apparent KD of MS2 coat protein [3]: 17.5 nM
CAUGUCCAACGAGGAUAUGGUAAAGGAAGUGUACCAGAAGGCGUGCGGACAUGAGGAUCACCCAUGUCGCGCGGUGCGAUGUGG [MOD3 Nando EXNG 1.1] (Eterna round: R96, puzzle: Exclusion NG 1) | 37.2 | 29.3 |  | apparent KD of MS2 coat protein [4]: 15.8 nM
CAUGUCUGAGGAUAUCGUUAUUUGUACAUGAGGAUCACCCAUGUCCUAUUUAUUAUAUUUCGAGAAGGCAGUGUAU [JR_E5_Sub093] (puzzle: Exclusion 5) |  |  | 15.6 | 
CAUGUCUGAGGAUAUCGUUUUUUGUACAUGAGGAUCACCCAUGUCCUAUUUUUUUUAUUUCGAGAAGGCAGUGUAU [JR_E5_Sub092] (puzzle: Exclusion 5) |  |  | 32.6 | 
CAUUAGCGAGGAUAUACAUGAGGAUCACCCAUGUGAUCCUAAGGCUGAUGAAGCCUAUGUAGAAGGCGCAAAUU [jl-ex3.4.54 ViennaUCT mod] (Eterna round: R97, puzzle: Exclusion 3) | 107 | 42.2 |  | 
CCAAGAAUAGGAUAUACACCAUGUCAGCUUCUAUACAACGCACAUGAGGAUCACCCAUGUAGAAGGGUUCUCUC [Exclusion-2-#3] (Eterna round: R97, puzzle: Exclusion 2) | 386 | 433 |  | 
CCAAUCAGAGGAUAUGCGAAUAAAUAAAACUUUUUUUUUUAACAUGAGGAUCACCCAUGUAGAAGGCUGUAACC [Ex2 #43] (Eterna round: R97, puzzle: Exclusion 2) | 31.5 | 25.4 |  | 
CCACGUCCGUACGUGUACUUGUCUCCUGUGUGCCCGGGUACAUGAGGAUCACCCAUGUCUGUGCUCGCCUUCUGCCC [JR_Sensorv2_tov2_Sub724] (Eterna round: R96, puzzle: Sensor v2, turn-off variant 2) | 126 | 165 |  | apparent KD of MS2 coat protein [4]: 84.7 nM
CCAGCGUAUGUGAGGAUAUGCUGGUCCUUGGAUCAGCAGAAGGCACAUGAGGAUCACCCAUGUGAGAACGUUGG [JL bmx4 3.38] (puzzle: Brourd's mod of Exclusion 4) |  |  | 24.6 | 

Sequence | apparent KD of MS2 coat protein (input ligand: FMN 200 uM) [nM] | apparent KD of MS2 coat protein (input ligand: none) [nM] | apparent KD of MS2 coat protein [1] [nM] | further results
CCAGCGUAUGUGAGGAUAUGCUGGUCCUUGGAUCAGCAGAAGGCACAUGAGGAUCACCCAUGUGGAGACGUUGG [JL bmx4 3.42] (puzzle: Brourd's mod of Exclusion 4) |  |  | 18 | 
CCAGCGUAUGUGAGGAUAUGCUGGUCCUUGGAUCAGCAGAAGGCACAUGAGGAUCACCCAUGUGGUGACGUUGG [JL bmx4 3.44] (puzzle: Brourd's mod of Exclusion 4) |  |  | 143 | apparent KD of MS2 coat protein [2]: 19.1 nM; apparent KD of MS2 coat protein [3]: 411 nM
CCAGGCGUCUUGGCUCGUCUUAUUUGGAGAGGAUUGAUAACAUGAGGAUCACCCAUGUGUGUGGGAGAGUUGCAGUG [JR_SV3TOV2_Sub018] (puzzle: Sensor v3, turn-off variant 2) |  |  | 425 | apparent KD of MS2 coat protein [2]: 335 nM; apparent KD of MS2 coat protein [3]: 374 nM
CCAGGCUGUGUGAGGAUAUGCUGGUCCUUGGAUCAGCAGAAGGCACAUGAGGAUCACCCAUGUGAGUAGCUUGG [JL bmx4 3.27] (puzzle: Brourd's mod of Exclusion 4) |  |  | 15.7 | 
CCAUACUGUAAGCUUCCCAACAUGAGGAUCACCCAUGUGGACCACGGCUUCGGUCAGCUAACCUGCUCGUCGUUGAU [Eternabot (L2) Solution 31] (Eterna round: R97, puzzle: Sensor, turn-off variant 1) | 15.2 | 16.9 |  | 
CCAUCACAUGAGGAUCACCCAUGUCAGGAUAUCUCAGUGCAUCCACACGGACGCAUCAAGAGAAGGGACAAAAC [Vinxlusion 4 - Jieux - Exclusion 1] (Eterna round: R97, puzzle: Exclusion 1) | 35.9 | 34.8 |  | 
CCAUCGAGUGUGAGGAUAUGCUGGUCCUUGGAUCAGCAGAAGGCACAUGAGGAUCACCCAUGUGAAUACGGUGG [JL bmx4 3.20] (puzzle: Brourd's mod of Exclusion 4) |  |  | 28.3 | 
CCAUUCAGAGGAUAUGCGAAUAAAUAAAACUUUUUUUUUUAACAUGAGGAUCACCCAUGUAGAAGGCUGUAACC [Ex2 #44] (Eterna round: R97, puzzle: Exclusion 2) | 31.4 | 27.6 |  | 
CCCAACGUAACAGGAUAUGCUGUUGAGGCCGGGCGACCUACAUGAGGAUCACCCAUGUCGAAAUGGCAGAAGGGUUGCCGGGUA [Quatin] (Eterna round: R96, puzzle: Exclusion NG 2) | 315 | 94.4 |  | apparent KD of MS2 coat protein [4]: 61.9 nM
CCCAGUUAGUGAGGAUAUCCUACAUGAGGAUCACCCAUGUAAUAAAUGAGGAUUUCGGGUGUCUAGGAGAAGGCACGGAUAGGC [Ostracism 24 - Jieux - Exclusion NG 2] (Eterna round: R96, puzzle: Exclusion NG 2) | 79.3 | 44.8 |  | apparent KD of MS2 coat protein [4]: 36 nM
CCCGGGAGUCAGGAUAUCUCCGAGGAGUAUCAGAGAGAAGGGACUACUUGAGGAUCACCCAAGUAGGUGUAAAA [Enleteerre] (Eterna round: R97, puzzle: Exclusion 6) | 28.8 | 20.2 |  | 
CCCGGGCCUGUGAGGAUAUGUUUGGGUAAACCCGGGCAGAAGGCACAUGAGGAUCACCCAUGUAAGGGUUUGGG [-29.6, -27.5 kcal, A 23%, 5bbis-5bbis] (Eterna round: R97, puzzle: Brourd's mod of Exclusion 4) | 22.6 | 34.5 |  | 
CCCGUACAUGAGGAUCACCCAUGUCAGGAUAUCUAAUCAUGCUGUAAGGCACAUUGAGGGAGAAGGGACAUAUU [EX1 B.29] (Eterna round: R97, puzzle: Exclusion 1) | 32.4 | 20.8 |  | 
CCCGUGUAAGGAUAUCGUUCACUUGACAAAAGUCAAGUGAACGAGAAGGUACAUGAGGAUCACCCAUGUACGGG [-33.8, -33.4 kcal, A 32%] (Eterna round: R97, puzzle: Exclusion 4) | 418 | 571 |  | 
CCCUCGGGAGGAUAUGGGUGUUUUUACAUGAGGAUCACCCAUGUAGAGUAAUAUGUGGGUCCAGAAGGCCCAAGGG [-26, -24.7 kcal, 25% A] (Eterna round: R97, puzzle: Exclusion 5) | 86.9 | 210 |  | 
CCGAAAAGGAAGGAUAUGCUAGACGAAAGUCUAGCAGAAGGUCCUACAUGAGGAUCACCCAUGUGUCCUAUCGG [Mat - Exclusion 6 - Eli Mod - D39] (Eterna round: R97, puzzle: Exclusion 6) | 49.9 | 43.4 |  | 
CCGAAGUGGCGGUCCUAUGACAUGAGGAUCACCCAUGUACUUCGCCACGAGCUUUUUGCUCGUCUUAUAGUUCUCGG [Sensor v3, turn-off variant 1 (MOD of Ator)] (puzzle: Sensor v3, turn-off variant 1) |  |  | 32.4 | apparent KD of MS2 coat protein [2]: 435 nM; apparent KD of MS2 coat protein [3]: 504 nM
